Legend:
[1] = system: HEK CCK2R tumor xenografts; test: In vivo radio-imaging and bio-distribution, HEK CCK2R tumor xenografts; design: species or system nu/nu mice
Experimental: (§1) In order to test the in vivo specificity of CRL-3 chelated with ^99mTc, HEK CCK2R and CCK2i4svR subcutaneous tumors were produced in nude mice according to known methods. Athymic female nu/nu mice were purchased from Harlan Laboratories and maintained on normal rodent chow and housed in a sterile environment on a standard 12 hour light and dark cycle for the duration of the study. All animal procedures were approved by the Purdue Animal Care and Use Committee in accordance with NIH guidelines.
(§2) 150 microcurie of CRL-3 ^99mTc was injected intravenously into each mouse. FIGS. 3A-B show an overlay of whole-body radio-images on white light photographs of mice bearing images of HEK CCK2R (a, b) and HEK CCKRi4sv (c, d) tumor xenografts in nu/nu mice two hours after the administration of CRL-3 ^99mTc. Kidneys were shielded with a lead plate. Mice a and c had the radioactive conjugate administered along with 100 fold of free unlabeled targeting ligand. In mice b and d, only the radio-conjugate CRL-3 ^99mTc was administered. Arrows indicate location of the tumor.
(§3) Following the above radio-imaging studies, animals were dissected and selected organs/tissues were collected into pre-weighed γ-counter tubes. Radioactivity of weighed tissues and test compounds were counted in a γ-counter. CPM values were decay corrected and results were calculated as % injected dose per gram of wet tissue (% ID/g). FIGS. 4A-B show the bio-distribution of the CRL-3 ^99mTc in mice having HEK CCK2i4svR and HEK CCK2R tumors. Error bars represent the standard deviation (n=5 mice/group).
Since small molecules are often excreted via the kidneys^43, we next elected to determine whether uptake of CRL-3 ^99mTc in the kidneys might be transient. […] By 24 h post tail vein injection, tumor to tissue ratios of CRL-3 ^99mTc in the muscle, heart, skin, blood, liver, and spleen were 90, 83, 30, 61, 4 and 14, respectively (see also Table 3).

HEK CCK2i4svR tumors = test: In vivo radio-imaging and bio-distribution, HEK CCK2i4svR tumor xenografts; design: species or system nu/nu mice
Experimental: as §1, §2
as §3, with “FIGS. 4A-B show the bio-distribution of the CRL-3 ^99mTc in mice having HEK CCK2i4svR and HEK CCK2R tumors. Error bars represent the standard deviation (n=5 mice/group).” left out

[2] = 0.5, 2, 4, 8 hours post tail vein injection
[3] = 150 microcurie i.v., two hours after administration, kidneys shielded
[4] = after radio-imaging, n=5 mice/group

Structure (SMILES): CC(C)(C)C(=O)CN1C(=O)[C@H](NC(=O)Nc2cccc(C(=O)NCCCCCCCC(=O)N[C@H](CCC(=O)O)C(=O)N[C@H](CCC(=O)NC[C@H](O)[C@@H](O)[C@H](O)[C@H](O)CO)C(=O)N[C@H](CCC(=O)O)C(=O)N[C@H](CCC(=O)NC[C@H](O)[C@@H](O)[C@H](O)[C@H](O)CO)C(=O)NC[C@@H]3[NH][99Tc]45[S]C[C@@H](C(=O)O)[N]4C(=O)[C@H](CC(=O)O)[N]5C3=O)c2)CN(C2CCCCC2)c2ccccc21 (stereo partly drawn) [CRL-3 ^99mTc]
- content of the kidneys over time (SPECT-CT) [1, 2]: decreased significantly over time
- uptake in the tumor mass over time (SPECT-CT) [1, 2]: relatively stable
- accumulation of radio-conjugate, whole-body radio-image [1, 3]: accumulated mainly in the receptor expressing tumor with little or no accumulation in other tissues except the kidney
- tumor to tissue ratio, blood ([1]; 24 h post tail vein injection): 61
- tumor to tissue ratio, heart ([1]; 24 h post tail vein injection): 83
- tumor to tissue ratio, liver ([1]; 24 h post tail vein injection): 4
- tumor to tissue ratio, muscle ([1]; 24 h post tail vein injection): 90
- tumor to tissue ratio, skin ([1]; 24 h post tail vein injection): 30
- tumor to tissue ratio, spleen ([1]; 24 h post tail vein injection): 14
- Uptake of radioactivity, Blood ([1]; 0.5 h post injection): 5.8 ± 2.7 % ID/g
- Uptake of radioactivity, Blood ([1]; 2 h post injection): 1.9 ± 0.97 % ID/g
- Uptake of radioactivity, Blood ([1]; 4 h post injection): 1.7 % ID/g
- Uptake of radioactivity, Blood ([1]; 8 h post injection): 0.24 % ID/g
- Uptake of radioactivity, Blood ([1]; 24 h post injection): 0.10 % ID/g
- Uptake of radioactivity, Brain ([1]; 0.5 h post injection): 0.13 % ID/g
- Uptake of radioactivity, Brain ([1]; 2 h post injection): 0.051 % ID/g
- Uptake of radioactivity, Brain ([1]; 4 h post injection): 0.053 % ID/g
- Uptake of radioactivity, Brain ([1]; 8 h post injection): 0.064 % ID/g
- Uptake of radioactivity, Brain ([1]; 24 h post injection): 0.0076 % ID/g
- Uptake of radioactivity, Heart ([1]; 0.5 h post injection): 2.3 ± 1.5 % ID/g
- Uptake of radioactivity, Heart ([1]; 2 h post injection): 0.68 ± 0.47 % ID/g
- Uptake of radioactivity, Heart ([1]; 4 h post injection): 0.59 % ID/g
- Uptake of radioactivity, Heart ([1]; 8 h post injection): 0.14 % ID/g
- Uptake of radioactivity, Heart ([1]; 24 h post injection): 0.076 % ID/g
- Uptake of radioactivity, Large Intestine ([1]; 0.5 h post injection): 1.0 ± 0.52 % ID/g
- Uptake of radioactivity, Large Intestine ([1]; 2 h post injection): 0.46 ± 0.20 % ID/g
- Uptake of radioactivity, Large Intestine ([1]; 4 h post injection): 0.53 % ID/g
- Uptake of radioactivity, Large Intestine ([1]; 8 h post injection): 0.24 % ID/g
- Uptake of radioactivity, Large Intestine ([1]; 24 h post injection): 0.13 % ID/g
- Uptake of radioactivity, Left Kidney ([1]; 0.5 h post injection): 11.2 ± 6.1 % ID/g
- Uptake of radioactivity, Left Kidney ([1]; 2 h post injection): 8.4 ± 4.6 % ID/g
- Uptake of radioactivity, Left Kidney ([1]; 4 h post injection): 13.4 % ID/g
- Uptake of radioactivity, Left Kidney ([1]; 8 h post injection): 6.0 % ID/g
- Uptake of radioactivity, Left Kidney ([1]; 24 h post injection): 2.6 % ID/g
- Uptake of radioactivity, Liver ([1]; 0.5 h post injection): 6.7 ± 3.6 % ID/g
- Uptake of radioactivity, Liver ([1]; 2 h post injection): 2.5 ± 2.4 % ID/g
- Uptake of radioactivity, Liver ([1]; 4 h post injection): 4.1 % ID/g
- Uptake of radioactivity, Liver ([1]; 8 h post injection): 1.9 % ID/g
- Uptake of radioactivity, Liver ([1]; 24 h post injection): 1.4 % ID/g
- Uptake of radioactivity, Lungs ([1]; 0.5 h post injection): 3.2 ± 1.7 % ID/g
- Uptake of radioactivity, Lungs ([1]; 2 h post injection): 1.2 ± 0.55 % ID/g
- Uptake of radioactivity, Lungs ([1]; 4 h post injection): 1.0 % ID/g
- Uptake of radioactivity, Lungs ([1]; 8 h post injection): 0.29 % ID/g
- Uptake of radioactivity, Lungs ([1]; 24 h post injection): 0.18 % ID/g
- Uptake of radioactivity, Muscle ([1]; 0.5 h post injection): 0.8 ± 0.37 % ID/g
- Uptake of radioactivity, Muscle ([1]; 2 h post injection): 0.29 % ID/g
- Uptake of radioactivity, Muscle ([1]; 4 h post injection): 0.3 % ID/g
- Uptake of radioactivity, Muscle ([1]; 8 h post injection): 0.093 % ID/g
- Uptake of radioactivity, Muscle ([1]; 24 h post injection): 0.070 % ID/g
- Uptake of radioactivity, Pancreas ([1]; 0.5 h post injection): 1.3 ± 0.62 % ID/g
- Uptake of radioactivity, Pancreas ([1]; 2 h post injection): 0.69 ± 0.84 % ID/g
- Uptake of radioactivity, Pancreas ([1]; 4 h post injection): 0.29 % ID/g
- Uptake of radioactivity, Pancreas ([1]; 8 h post injection): 0.10 % ID/g
- Uptake of radioactivity, Pancreas ([1]; 24 h post injection): 0.053 % ID/g
- Uptake of radioactivity, Right Kidney ([1]; 0.5 h post injection): 11.4 ± 6.3 % ID/g
- Uptake of radioactivity, Right Kidney ([1]; 2 h post injection): 7.6 ± 4.4 % ID/g
- Uptake of radioactivity, Right Kidney ([1]; 4 h post injection): 12.8 % ID/g
- Uptake of radioactivity, Right Kidney ([1]; 8 h post injection): 5.7 % ID/g
- Uptake of radioactivity, Right Kidney ([1]; 24 h post injection): 2.6 % ID/g
- Uptake of radioactivity, Skin ([1]; 0.5 h post injection): 2.3 ± 1.2 % ID/g
- Uptake of radioactivity, Skin ([1]; 2 h post injection): 1.0 ± 0.41 % ID/g
- Uptake of radioactivity, Skin ([1]; 4 h post injection): 1.1 % ID/g
- Uptake of radioactivity, Skin ([1]; 8 h post injection): 0.42 % ID/g
- Uptake of radioactivity, Skin ([1]; 24 h post injection): 0.21 % ID/g
- Uptake of radioactivity, Small Intestine ([1]; 0.5 h post injection): 1.2 ± 0.63 % ID/g
- Uptake of radioactivity, Small Intestine ([1]; 2 h post injection): 0.52 ± 0.28 % ID/g
- Uptake of radioactivity, Small Intestine ([1]; 4 h post injection): 0.52 % ID/g
- Uptake of radioactivity, Small Intestine ([1]; 8 h post injection): 0.19 % ID/g
- Uptake of radioactivity, Small Intestine ([1]; 24 h post injection): 0.13 % ID/g
- Uptake of radioactivity, Spleen ([1]; 0.5 h post injection): 2.1 ± 1.2 % ID/g
- Uptake of radioactivity, Spleen ([1]; 2 h post injection): 0.69 ± 0.70 % ID/g
- Uptake of radioactivity, Spleen ([1]; 4 h post injection): 1.4 % ID/g
- Uptake of radioactivity, Spleen ([1]; 8 h post injection): 0.65 % ID/g
- Uptake of radioactivity, Spleen ([1]; 24 h post injection): 0.45 % ID/g
- Uptake of radioactivity, Stomach ([1]; 0.5 h post injection): 1.2 ± 0.61 % ID/g
- Uptake of radioactivity, Stomach ([1]; 2 h post injection): 0.58 ± 0.32 % ID/g
- Uptake of radioactivity, Stomach ([1]; 4 h post injection): 0.56 % ID/g
- Uptake of radioactivity, Stomach ([1]; 8 h post injection): 0.24 % ID/g
- Uptake of radioactivity, Stomach ([1]; 24 h post injection): 0.15 % ID/g
- Uptake of radioactivity, Tumor ([1]; 0.5 h post injection): 7.4 ± 4.6 % ID/g
- Uptake of radioactivity, Tumor ([1]; 2 h post injection): 8.1 ± 5.1 % ID/g
- Uptake of radioactivity, Tumor ([1]; 4 h post injection): 12.0 % ID/g
- Uptake of radioactivity, Tumor ([1]; 8 h post injection): 8.5 % ID/g
- Uptake of radioactivity, Tumor ([1]; 24 h post injection): 6.3 ±3.7 % ID/g
- bio-distribution of radiotracer in organs/tissues [1, 4]: only the tumor and kidneys show excessive accumulation of radiotracer
- accumulation of radio-conjugate, whole-body radio-image (HEK CCK2i4svR tumors; [3]): accumulated mainly in the receptor expressing tumor with little or no accumulation in other tissues except the kidney
- bio-distribution of radiotracer in organs/tissues (HEK CCK2i4svR tumors; [4]): only the tumor and kidneys show excessive accumulation of radiotracer
